Data as given in the supplement of paper PMC10567573.

B1: INTS3 (parent)
chain: FSDDEEDLNSKGKKREFRFHPIKE

Variants of: B1
Assay: protein stability index of a GFP-peptide fusion (GPS, HEK-293T) (PSI 1-6); higher = more stable
Details: c terminus: a fixed tail appended
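Also: lentivirally expressed fusions sorted by FACS into six bins by GFP to DsRed ratio, PSI derived from sequencing read proportions per bin multiplied by bin number.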

Going from FSDDEEGLNSKGKKREFRFHPIKE [D7G] to FSDDEEPLNSKGKKREFRFHPIKE [D7P], the protein stability index rises from 2.13 to 2.18.

Compared with FSDDEECLNSKGKKREFRFHPIKE [D7C], FSDDEETLNSKGKKREFRFHPIKE [D7T] is higher in protein stability index: 1.99 for the first, 2.58 for the second.

FSDDEEYLNSKGKKREFRFHPIKE [D7Y] and FSDDEEWLNSKGKKREFRFHPIKE [D7W] are the same in protein stability index: 2.23 for the first, 2.23 for the second.

First: FSDDEEELNSKGKKREFRFHPIKE [D7E]
Second: FSDDEEILNSKGKKREFRFHPIKE [D7I]
The protein stability index of the first is higher: 3.14 for the first, 2.12 for the second.

Compared with FSDDEEDLNSKGKKREFRFHPIKW [E24W], FSDDEEDLNSKGKKREFRFHPIKC [E24C] is lower in protein stability index: 2.45 for the first, 2.18 for the second.

First: FSDDEEDLNSKGKKREFRFHPIKQ [E24Q]
Second: FSDDEEDLNSKGKKREFRFHPIKK [E24K]
The protein stability index of the first is higher: 2.35 for the first, 2.14 for the second.

Compared with FSDDEEDLNSKGKKRDFRFHPIKE [E16D], FSDDEEDLNSKGKKRPFRFHPIKE [E16P] is lower in protein stability index: 4 for the first, 2.17 for the second.

Compared with FSDDEEDLNSKGKKRGFRFHPIKE [E16G], FSDDEEDLNSKGKKREFRPHPIKE [F19P] is higher in protein stability index: 2.41 for the first, 5.07 for the second.

Going from FSDDEEDLNSKGKKREFRAHPIKE [F19A] to FSDDEEDLNSKGKKREFRTHPIKE [F19T], the protein stability index falls from 5.07 to 5.06.

Going from FSDDEEDLNSKGKKREFRWHPIKE [F19W] to FSDDEEDLNSKGKKREFRSHPIKE [F19S], the protein stability index rises from 3.72 to 5.6.

First: FSDDEEDLNSKGKKREFRHHPIKE [F19H]
Second: FSDDEEDLNSKGKKPEFRFHPIKE [R15P]
The protein stability index of the first is higher: 5.29 for the first, 2.6 for the second.

First: FSDDEEDLNSKGKKAEFRFHPIKE [R15A]
Second: FSDDEEDLNSKGKKNEFRFHPIKE [R15N]
The protein stability index of the first is higher: 3.8 for the first, 3.49 for the second.

Compared with FSDDEEDLNSKGKKYEFRFHPIKE [R15Y], FSDDEEDLNSKGKKKEFRFHPIKE [R15K] is higher in protein stability index: 2.56 for the first, 3.89 for the second.

Compared with FSDDEEDLNSKGKKVEFRFHPIKE [R15V], FSDDEEDLNSKGKKCEFRFHPIKE [R15C] is higher in protein stability index: 3.14 for the first, 3.31 for the second.

First: FSDDEEDLNSKGKKWEFRFHPIKE [R15W]
Second: FSDDEEDLNSKGIKREFRFHPIKE [K13I]
The protein stability index of the first is higher: 2.42 for the first, 2.31 for the second.

Going from FSDDEEDLNSKGLKREFRFHPIKE [K13L] to FSDDEEDLNSKGHKREFRFHPIKE [K13H], the protein stability index falls from 3.54 to 2.31.

Going from FSDDEEDLNSKGRKREFRFHPIKE [K13R] to FSDDEEDLNSKGCKREFRFHPIKE [K13C], the protein stability index falls from 2.99 to 2.89.

First: FSDDEEDLNSKGDKREFRFHPIKE [K13D]
Second: FSDDEEDLNSKGGKREFRFHPIKE [K13G]
The protein stability index of the first is lower: 3.4 for the first, 3.42 for the second.

Compared with FSDDEEDLNSKGKEREFRFHPIKE [K14E], FSWDEEDLNSKGKKREFRFHPIKE [D3W] is lower in protein stability index: 3.44 for the first, 2.45 for the second.

First: FSSDEEDLNSKGKKREFRFHPIKE [D3S]
Second: FSQDEEDLNSKGKKREFRFHPIKE [D3Q]
The protein stability index of the first is lower: 2.55 for the first, 2.58 for the second.

First: FSGDEEDLNSKGKKREFRFHPIKE [D3G]
Second: FSNDEEDLNSKGKKREFRFHPIKE [D3N]
The protein stability index of the first is higher: 2.85 for the first, 2.57 for the second.

First: FSDDEEDLNSKGKKREFRFQPIKE [H20Q]
Second: FSDDEEDLNSKGKKREFRFCPIKE [H20C]
The protein stability index of the first is higher: 4.44 for the first, 4.31 for the second.

First: FSDDEEDLNSKGKKREFRFSPIKE [H20S]
Second: FSDDEEDLNSKGKKREFRFEPIKE [H20E]
The protein stability index of the first is lower: 5.18 for the first, 5.28 for the second.

Compared with FSDDEEDLNSKGKKREFRFFPIKE [H20F], FSDDEEDLNSKGKKREFRFPPIKE [H20P] is higher in protein stability index: 3.94 for the first, 4.86 for the second.

First: FSDDEEDLNSKGKKREFRFWPIKE [H20W]
Second: FSDPEEDLNSKGKKREFRFHPIKE [D4P]
The protein stability index of the first is higher: 4.31 for the first, 2.53 for the second.

First: FSDNEEDLNSKGKKREFRFHPIKE [D4N]
Second: FSDKEEDLNSKGKKREFRFHPIKE [D4K]
The protein stability index of the first is higher: 2.82 for the first, 2.02 for the second.

First: FSDVEEDLNSKGKKREFRFHPIKE [D4V]
Second: FSDIEEDLNSKGKKREFRFHPIKE [D4I]
The protein stability index of the first is lower: 2.23 for the first, 2.38 for the second.

Compared with WSDDEEDLNSKGKKREFRFHPIKE [F1W], SSDDEEDLNSKGKKREFRFHPIKE [F1S] is lower in protein stability index: 2.84 for the first, 2.32 for the second.

First: RSDDEEDLNSKGKKREFRFHPIKE [F1R]
Second: YSDDEEDLNSKGKKREFRFHPIKE [F1Y]
The protein stability index of the first is lower: 2.71 for the first, 2.94 for the second.

Going from ISDDEEDLNSKGKKREFRFHPIKE [F1I] to FSDDDEDLNSKGKKREFRFHPIKE [E5D], the protein stability index falls from 3.2 to 2.68.

Compared with FSDDREDLNSKGKKREFRFHPIKE [E5R], FSDDKEDLNSKGKKREFRFHPIKE [E5K] is higher in protein stability index: 2 for the first, 2.17 for the second.

First: FSDDEEDLNSKGKKREFGFHPIKE [R18G]
Second: FSDDEEDLNSKGKKREFCFHPIKE [R18C]
The protein stability index of the first is higher: 4.77 for the first, 4.57 for the second.

Compared with FSDDEEDLNSKGKKREFSFHPIKE [R18S], FSDDEEDLNSKGKKREFRFHPILE [K23L] is lower in protein stability index: 4.12 for the first, 2.95 for the second.

First: FSDDEEDLNSKGKKREFRFHPITE [K23T]
Second: FSDDEEDLNSKGKKREFRFHPIAE [K23A]
The protein stability index of the first is lower: 3.52 for the first, 3.81 for the second.

Going from FSDDEEDLNSKGKKREFRFHPISE [K23S] to FSDDEEDLYSKGKKREFRFHPIKE [N9Y], the protein stability index falls from 3.19 to 2.29.

Compared with FSDDEEDLESKGKKREFRFHPIKE [N9E], FSDDEEDLLSKGKKREFRFHPIKE [N9L] is lower in protein stability index: 3.6 for the first, 2.99 for the second.

Compared with FSDDEEDLSSKGKKREFRFHPIKE [N9S], FSDDEEDLQSKGKKREFRFHPIKE [N9Q] is lower in protein stability index: 2.98 for the first, 2.68 for the second.

Going from FKDDEEDLNSKGKKREFRFHPIKE [S2K] to FFDDEEDLNSKGKKREFRFHPIKE [S2F], the protein stability index falls from 3.23 to 2.31.

Going from FADDEEDLNSKGKKREFRFHPIKE [S2A] to FSDDEEDLNNKGKKREFRFHPIKE [S10N], the protein stability index rises from 3.14 to 3.37.

Going from FSDDEEDLNCKGKKREFRFHPIKE [S10C] to FSDDEEDLNWKGKKREFRFHPIKE [S10W], the protein stability index rises from 3.08 to 3.56.

First: FSDDEEDLNMKGKKREFRFHPIKE [S10M]
Second: FSDDEEDLNSKGKKREFRFHPRKE [I22R]
The protein stability index of the first is higher: 3.56 for the first, 3 for the second.

Going from FSDDEEDLNSKGKKREFRFHPWKE [I22W] to FSDDEEDLNSKGKKREFRFHPLKE [I22L], the protein stability index rises from 2.33 to 3.19.

First: FSDDEEDLNSKGKKREFRFHPCKE [I22C]
Second: FSDDEEDLNSKGKKREFRFHIIKE [P21I]
The protein stability index of the first is lower: 2.48 for the first, 3.7 for the second.

Compared with FSDDEEDLNSKGKKREFRFHWIKE [P21W], FSDDEEDLNSKGKKREFRFHMIKE [P21M] is higher in protein stability index: 2.53 for the first, 3.32 for the second.

Going from FSDDEEDYNSKGKKREFRFHPIKE [L8Y] to FSDDEEDDNSKGKKREFRFHPIKE [L8D], the protein stability index rises from 3 to 3.26.

Going from FSDDEEDKNSKGKKREFRFHPIKE [L8K] to FSDDEEDCNSKGKKREFRFHPIKE [L8C], the protein stability index rises from 2.78 to 2.99.

First: FSDDEEDWNSKGKKREFRFHPIKE [L8W]
Second: FSDDEHDLNSKGKKREFRFHPIKE [E6H]
The protein stability index of the first is higher: 2.84 for the first, 2.29 for the second.
